Source: FireProtDB (doi:10.1002/prot.340080106)

B1: Protein S100-G, P02633 (parent)
chain: MSAKKSPEELKGIFEKYAAKEGDPNQLSKEELKLLLQTEFPSLLKGPSTLDELFEELDKNGDGEVSFEEFQVLVKKISQ

Variants of: B1
Conditions: Bos taurus; pH 7; 25 °C; Urea; CD; PIPES-KOH 20 mM; reversible: yes; structure 1IGV; whole UniProt chain shown

Variant	ddG of mutation (higher = less stable) [kcal/mol]	denaturant midpoint (higher = more stable) [M]	unfolding free energy [kcal/mol]
E21Q D23N E30Q	-0.93	6.1	1.22
D23N E30Q	-0.52	5.8	0.81
E21Q	-0.38	5.6	0.67
E21Q D23N	-1.19	6.2	1.48
